The target in this test is human VEGF165 (non-biotinylated) (human) (UniProt P15692). The test can be described thus: cell-based or functional assay.

The values that follow come from US20260097098A1.

Sequence of human VEGF165 (non-biotinylated) (human) (P15692 other isoform, or with tags, fused parts or gaps): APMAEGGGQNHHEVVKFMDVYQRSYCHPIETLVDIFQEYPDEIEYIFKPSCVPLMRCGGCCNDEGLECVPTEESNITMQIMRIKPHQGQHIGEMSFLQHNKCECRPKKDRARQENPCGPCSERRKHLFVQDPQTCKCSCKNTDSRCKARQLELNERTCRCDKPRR

The substance EYLEA (aflibercept) (Fc fusion) came in with a maximal inhibition of VEGF-stimulated proliferation below 80%.
